# Data as given in the nanobody polyreactivity screen of Harvey et al. (2022).
# Assay: yeast display, Sf9 membrane polyspecificity reagent, FACS + sequencing; frameworks hold sequencing errors
# In short: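 Galactose-induced (36–48 hours) yeast carrying a synthetic nanobody display library were exposed to 10% biotinylated, detergent-solubilized Sf9 membrane reagent at 4 °C for 1 hour. FACS followed streptavidin microbead enrichment, using low and high (top ~1%) gates for expression (anti-HA) and reagent binding (streptavidin). Colony PCR, MiSeq 2 × 250 sequencing and CDR-length filtering followed. Labels for polyreactivity reflect the gate of origin.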
row,Sequence,polyreactivity (PSR sort gate)
1,QVQLVESGGGLVQAGGSLRLSCAASGSTFPGNALGSYRQAPGKERELVAAIRDRGTSTYYADSVKGRFTISRDNAKNTFYLQMNSLKPEDTAVYYCAASSSNKEYDYWGQGTQVTVSS,high polyreactivity
2,QVQLLESGGGLVQAGGSLRLSCAASGSTFASYAMGWYRQAPGKETELVAAITRTGSTYYADSVKGRFTISRDNAKNTVYLQMNSLKPEDTAVYYCAKLWIGGYKYYYWGQGTQVTVSS,high polyreactivity
3,QVQLVESGGGLVQAGGSLRLSCAASGSTYYIYAMGWYRQAPGKEREMVAAISDNGGTTYYADSVKGRFTISRDNAKNTVYLQMNSLKPEDTAVYYCNAEGWWYWYYGSYDYWGQGTQVTVSS,high polyreactivity
4,QVQLVESGGGLVQAGGSLRISCAASGFIFRPNAMGWYRQAPGKERELVAAITRDGDRTYYADSVKGRFTISRDNAKNTVYLQMNSLKPEDTAVYYCAADVIQWWTRYYTWEYDYWGQGTQVTVSS,low polyreactivity
5,QVQLVESGGGLVQAGGSLRLSCAASGSTFTVNAMGWYRQAPGKERELVAAISYTDSITYYADSVKGRFTISRDNAKNTVYLQMNSLKPEDTAVYYCAVDYTVYFATYSWPYLSTHEYWGQGTQVTVSS,high polyreactivity
6,QVQLVESGGGLVQAGGSLRLSCAASGLIFYTYAMGWYRQAPGKERALVADINRSDGSTYYADSVKGRFTISRDNAKNTVYLQMNILKPEDTAVYYCAVVGPYYTRFGGRYYYWGQGTQVTVSS,low polyreactivity
7,QVQLVESGGGLVQAGGSLRLSCAASGRIFNRYAMGWYRQAPGKERELVAAITSGGDTNYADSVKGRFTISRDNAKNTVYLQMNSLKPEETAVYYCAAYLYPWYSRYYYWGQGTQVTVSS,high polyreactivity
8,QVQLVESGGGLVQAGGSLRLSCAASGSTLLANAMGWYRQAPGKERELVAASTYYADSVKGRFTISRDNAKNTVYLQMNSLKPEDTAVYYCAADTVRGGPDGIEYNYWGQGTQVTVSS,low polyreactivity
9,QVQLVESGGGLVQAGGSLRLSCAASGSIFDSYAMGWYRQAPGKERELVAVISESGGTTYYADSVKGRFTISRDNAKNTVYLQMNSLKPEDTAVYYCAAVWYYQFGVWGYYWGQGTQVTVSS,low polyreactivity
10,QVQLVESVGGIVQAGGSLRLTCAASGSIIKRNAMGWYRQAPGKERELVATISSGDGSTRYADSVKGRFTISRDNAKNTVYLQMNSLKPEDTAVYYCARDFTYTYYRWKTPYRIGHDYWGQGTQVTVSS,low polyreactivity
11,QVQLVESGGGLVQAGGSLSLSCAASGYTFPYYTMGWYRQAPGKERELVATITRRGDSTYYADSVKGRFTISRDNAKNTVYLQMNSLKPEDTAVYYCNTASYGRHQFRKSSKMDYWGQGTQVTVSS,high polyreactivity
12,QVQLVESGGGLVQAGGSLRLSCAASGGIFDSYALGWYRQAPGKERELVADITSGGSTNYADSVKGRFTISRDNAKNTVYLQMNSLKPEDTAVYYCARTVYGARSYDYWGQGTQVTVSS,low polyreactivity
13,QVQLVESGGGLVQAGGSLRLSCAASGSTFFLYAMGWYRQAPGKERELVAAISTTGGSTNYADSVKGRFTISRDNAKNTVYLQMNSLKPEDTAVYYCAAGPSAQSIYDHWGQGTQVTLSS,low polyreactivity
14,QVQLVESGGGLVQAGGSLRLSCAASGSTFERYVMGWYRQAPGTERELVAAISRSGGTTYYADSVKGRFTISRDNAKNTVYLHMNSLKPEDTAVYYCAARYSVRGSQRPIYYYWGQGTQVTVSS,high polyreactivity
15,QVQLVESGGGLVQAGGSLRLSCAASGRTFAGYAMGWYRQAPGKERELVAAISGSGGRTYYADSVKGRFTISRDYAKNTVYLQMNSLKPEDTAVYYCAASQRVYIARSDYWGQGSQVTVSS,high polyreactivity
16,QVQLVESGGGLVQAGGSLRLSCAASGRTFRGNAMGWYRQAPGKERELVAAIRWNGGSTYYADSVKGRFTISRDNAKNTVYLQMNSLKPEDTAVYYCAVLRLDYWGQGTQVTVSS,high polyreactivity
17,QVQLVESGGGLVQAGGSLRLSCAASGRIFGRNAMGWYRQAPGKERELVAAISSSGGTYYADSVKGRFTISRDNAKNTVYLQMNSLKPEDTAVYYCTARVRTQQRWVDYWGQGTQVTVSS,high polyreactivity
18,QVQLVESGGGLVQAGGSLRLICAASGFTFRVYSMGWYRQAPGKEREFVASISWTGDTTYYADSVKGRFTISRDNAKNTVYLQMNSLKPEDTEVYYCAVDTILGYDYWGQVTQVTVSS,low polyreactivity
19,QVQLGESGGGLVQAGGSLRLSCAASGRIFSYNAMRWYRPAPGKERELVAGITSGGRTYYADSVKGRFTISRDNAKNTVYLQMNSLKPEDTAVYYCAARYVPARTRYYFWGQGSQVTVSS,high polyreactivity
20,QVQLVESGGGLDQAGGSLRLSCAASGFTFGYYAMGWYRQAPGKERELVATIDRGGGTSYADSVKGRFTISRDNAKNTVYLQMNSLKPEDTAVYYCNRAGYGAKARRYRSYWGQGTQVTVSS,high polyreactivity
21,QVQRVESGGGLVQAVGSLRLSCAPSGIIIPVKAMGWYRQAPGKERELVAAITTGGSTNYADSVKGRFTISRDNAKNNVYLQMNSLKPEDTAVYYCAADTARTRIFDYWGQGTQVTVSS,low polyreactivity

row,Sequence,polyreactivity (PSR sort gate)
1,QVQLVESGGGLVQAGGSLRLSCAASGSIFQHYAMGLYRQAPGKERELVAAISYDTTSTYYADSVKGRFTISRDNAKNTVYLQMNSLKPEDTAVYYCNTYPEVYGPFQYDYWGQGTQVTVSS,low polyreactivity
2,QVQLVESGGGLVQAGGSLRLSCAASGRIFGVNAMGWYRQAPGKERELVAAITRRGGSTYADSVKGRFTISRDNAKNTVYLQMNSLKPEDTAVYYCNAESYYGIFRYKYDYWGQGTQVTVSS,high polyreactivity
3,QVQLVESGGGLVQAGGSLRLSCAASGSTIFYNAMGWYSKAPGKERELVAAITDSGGSTYYADSVKGRFTISRDNAKNTVYLQMNSLKPEDTAVYYCAKRNFDNPIFDYWGQGTQVTVSS,low polyreactivity
4,QVQLVESGGGLVQAGGSLRLSCAASGNTFAGNAKGCYRQAPGKERELVAAISRSGVTTRYADSVKGRFTISRDNAKNTVYLQMNSLKPEDTAVYYCNADPRLRQTRDYWGQGTQVTVSS,high polyreactivity
5,QVQLVESGGGLVQAGGSLRLSCAASGFIFQRYAMGWYRQAPGKERELVAAITRTGGRTYYSDSVKGRFTISRDNAKNTVYLQMNSLKPEDTAVYYCAADRTMSYEYWGQGTKVTVSS,high polyreactivity
6,QVQLVESGGGLVQAGGSLRLSCAASGFTFRYNAMGWYRQAPGKEREFVAAITVTGGSTYYADSVKGRFTISRDNAKNTVYLQMNCLKPEDTAVYYCNAYRYTSSKFGYWGQGTQVTVSS,low polyreactivity
7,QVQLVESGGGLVQAGGSLRLSCAGSGRIFARNVMGWYGQAPGKVRELVAAISRSGGSTYYADSVKGRFTISRDNAKNTVYLQMNSLKPEDTAFYYCNAYYPIRSSPYGYYYWGQGTQVTVSS,high polyreactivity
8,QVQLVESGGGLVQAGGSLRLSCAASGFTFNGNAMGWYRPAPGKERELVAAITRTGTDTSYADSVKGRFTISRDNAKNTVYLQMNSLKPEDTAVYYCAAPPYNGYRYGTTGYYWGQGTQVTVSS,low polyreactivity
9,QVQLVESGGGLVQAGGSLRLSCAASGGIFYGYALGWYRQAPGKERELVASITSDGSTYADSVKGRFTISRDNAKNTVYLQMNSLKPEDTAVYYCNKEILVIVTYDYWGQGTQVTVSS,low polyreactivity
10,QVQLVESGGGLVQAGGSLRLSCAASGRTVGYYGMGWYRQAPGKERELVAAITGSGGSTYYADSVKGRFTISRDNAKNTVYLQMNSLKPEDTAVYYCAATYLSRWTLYDYWGQGTQVTVSS,high polyreactivity
11,QVQLVESGGGLVQAGGSLRLSCAASGFTFVRYAMGWYRQAPGKERELVAAISSSGGSTYYADSVKGRFTISRDNAKNTVYLQMNSLKPEDTAVYYCAARPYARYSRNIDGYEYWGQGTQVTVSS,high polyreactivity
12,QVQLVESGGGLVQAGGSLRLSCAASGFTFYPYTMGWYRQAPGKERELVADITYDSTYYADSVKGRFTISRDNAKNTVYLQMNSLKPEDTAVYYCNATGYSVSRSAYWYGWYDYWGQGTQVTVSS,low polyreactivity
13,QVQLVESGGGLVHAGGRLRLSCAASGRTFGPYVMGWYRQSPGKERELVASISSADSTYYADSVKVRFTFSRDNAKNTFYLQMNSLKPEDTAVYYCAAEWYDYLYRMDYWGQGTQVTVSS,low polyreactivity
14,QVQLVESGGGLVQAGGSLRLSCAASGYTFGYNAMGWYRQAPGKERELVAAISWNAGSTYYADSVKGRFTISRDNAKNTVYLQMNSLKPEDTAVYYCATEGTYIYNYWGQGTQVTVSS,low polyreactivity
15,QVQLVESGGGLVQAGGSLRLSCAASGRTFRYYAMGWYRQAPGKERELVAAISWDGARSYYADSVKGRFTISRDNAKNTVYLQMNSLKPEDTAVYYCAADFPGGTDRYYPMDYWGQGTQVTVSS,low polyreactivity
16,QVHLVESGGGLVQAGGSLRLSSAASGSIFDSNAMGWYRQAPGKERELVAAINSTDITKYADSVKGRFTISRDNAKNTVYLQMNSLKPEDTAVYYCAKDQSLTYSSLWGYDYWGQGTQVTVSS,low polyreactivity
17,QVQLVESGGGLVQAGGSLRLSCAASGGIFRYNAMGWYRQAPGKERELVAAISYRGGSTYYADSVKGRFTISRDNAKNTVYLQMNSLKPEDTAVYYCAAVYYQDKRGDYWGQGTQVTVSS,high polyreactivity
18,QVQLEESGGRLVQAGGSLRLSCAASGRTFYVYALGWYRQAPGKEREFVAAISGSGGSTFYADSVKGRFTISRDNPKNTVYLQMNSLKPEDTAVYYCATGGSYLYYLKFGHLSAFDYWGQGTQVTVSS,low polyreactivity
19,QVQLVESGGGLVQAGGSLRLICAASGGIFATYAMGWYRQAPGKEMELVAAITKRGGSTYYADSVKGRFTISRDNAKNTVYLQMNSLTPEDTAVYYCAAKGYRWFRLGGYYFKFDYWGQGTQVTVSS,high polyreactivity
20,QFQLVESGGGLVQAGGSLRLSCAASGRTFRYYAMGGYIQAPGKERELVGAITTGSSTYYADSVKGRFTISRDNAKNTVYLQMNSLKTEDTAVYYCHVFQGTRYGYWGQGTKVTVSS,low polyreactivity
